Key:
[1] = molecular target: β2YFP nAChR subunit (mouse) (UniProt Q9ERK7); assay: FRET or BRET; sensitized acceptor emission FRET between CFP-RIC-3 (donor) and α7-Venus, β2YFP (with nonfluorescent α4) or α4YFP (with nonfluorescent β2) co-transfected in living HEK293T cells at cDNA ratios of CFP-RIC-3 to subunit of 0.2:1, 0.5:1, 1:1 or 5:1
[2] = molecular target: α7-Venus nAChR subunit (mouse) (UniProt P49582); assay: as above
Chain of UniProt P49582 (P49582 23-502): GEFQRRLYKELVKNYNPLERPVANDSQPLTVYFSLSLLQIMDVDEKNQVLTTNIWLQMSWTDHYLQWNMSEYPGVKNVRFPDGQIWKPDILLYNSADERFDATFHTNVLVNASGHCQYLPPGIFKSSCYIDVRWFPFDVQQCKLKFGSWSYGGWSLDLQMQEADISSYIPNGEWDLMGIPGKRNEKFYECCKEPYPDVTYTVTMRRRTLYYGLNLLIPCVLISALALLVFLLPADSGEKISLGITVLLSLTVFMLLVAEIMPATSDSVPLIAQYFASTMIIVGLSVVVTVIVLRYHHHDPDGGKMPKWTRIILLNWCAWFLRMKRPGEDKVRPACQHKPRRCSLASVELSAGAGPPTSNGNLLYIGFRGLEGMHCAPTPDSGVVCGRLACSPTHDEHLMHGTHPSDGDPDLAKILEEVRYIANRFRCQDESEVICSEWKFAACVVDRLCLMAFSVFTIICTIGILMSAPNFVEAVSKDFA

Chain of UniProt Q9ERK7 (Q9ERK7 26-501): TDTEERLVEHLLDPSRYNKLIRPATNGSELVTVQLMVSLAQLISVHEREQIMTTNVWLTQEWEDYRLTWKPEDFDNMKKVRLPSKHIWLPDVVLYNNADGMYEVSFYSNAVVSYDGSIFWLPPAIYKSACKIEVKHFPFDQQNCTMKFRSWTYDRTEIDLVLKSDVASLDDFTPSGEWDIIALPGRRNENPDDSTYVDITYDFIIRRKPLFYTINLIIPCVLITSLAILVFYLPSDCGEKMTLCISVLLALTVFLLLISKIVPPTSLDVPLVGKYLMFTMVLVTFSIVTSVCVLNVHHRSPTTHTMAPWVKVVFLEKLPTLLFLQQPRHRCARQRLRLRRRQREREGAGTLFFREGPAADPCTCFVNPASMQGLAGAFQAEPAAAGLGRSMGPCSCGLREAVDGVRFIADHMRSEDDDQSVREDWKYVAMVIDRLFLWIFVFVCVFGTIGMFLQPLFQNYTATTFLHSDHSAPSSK

## CFP-RIC-3 (cyan fluorescent protein fused to the N terminus of RIC-3) (from UniProt Q7Z5B4 29-369) (natural protein)
[1]
  FRET efficiency (CFP-RIC-3 to β2YFP 0.2:1): 10.8%
  FRET efficiency (CFP-RIC-3 to β2YFP 0.5:1): 10.7%
[2]
  FRET efficiency (CFP-RIC-3 to α7-Venus 1:1): 26%

— publication PMC3637639
